{"source": "the RNAGym collection of RNA variant scans (doi:10.7554/elife.80360)", "parents": {"B1": {"name": "Twister Ribozyme (parent)", "chain": "AACACUGCCAAUGCCGGUCCCAAGCCCGGAUAAAAGUGGAGGGGGCGG"}}}
{"variants_of": "B1", "experiment": "self-cleavage, relative activity (ratio to wild type); higher = more cleavage; co-transcriptional"}
{"variant": "AACACUGCCAAUGCCGGUCCCAAGCCCGAAUAACAGUGGAGGGGGCGG", "note": "[G29A A34C]", "self-cleavage": 0.282}
{"variant": "AACACUGCCAAUGCCGGUCCCAAGCCCUGAUAAACGUGGAGGGGGCGG", "note": "[G28U A35C]", "self-cleavage": 0.888}
{"variant": "AACACUGCCAAUGCCGGUCCCAAGCCUGGAUAAAAGUGGAGGCGGCGG", "note": "[C27U G43C]", "self-cleavage": 0.135}
{"variant": "AACACUGCCAAUGCCGGUCCCAAGCCUGGAUAAAAGUCGAGGGGGCGG", "note": "[C27U G38C]", "self-cleavage": 0.644}
{"variant": "AACACUGCCAAUGCCGGUCCCAAGCCCUGAUAAAAUUGGAGGGGGCGG", "note": "[G28U G36U]", "self-cleavage": 0.136}
{"variant": "AACACUGCCAAUGCCGGUCCCAAGCCCCGAUAUAAGUGGAGGGGGCGG", "note": "[G28C A33U]", "self-cleavage": 0.556}
{"variant": "AACACUGCCAAUGCCGGUCCCAAGCCCUGAUAAGAGUGGAGGGGGCGG", "note": "[G28U A34G]", "self-cleavage": 0.574}
{"variant": "AACACUGCCAAUGCCGGUCCCAAGCCCAGAUACAAGUGGAGGGGGCGG", "note": "[G28A A33C]", "self-cleavage": 0.873}
{"variant": "AACACUGCCAAUGCCGGUCCCAAGCCCUGAAAAAAGUGGAGGGGGCGG", "note": "[G28U U31A]", "self-cleavage": 0.881}
{"variant": "AACACUGCCAAUGCCGGUCCCAAGCCCUGACAAAAGUGGAGGGGGCGG", "note": "[G28U U31C]", "self-cleavage": 0.946}
{"variant": "AACACUGCCAAUGCCGGUCCCAAGCCCUUAUAAAAGUGGAGGGGGCGG", "note": "[G28U G29U]", "self-cleavage": 0.972}
{"variant": "AACACUGCCAAUGCCGGUCCCAAGCCCAGAUAAAAUUGGAGGGGGCGG", "note": "[G28A G36U]", "self-cleavage": 0.15}
{"variant": "AACACUGCCAAUGCCGGUCCCAAGCCCAGAUAAAAAUGGAGGGGGCGG", "note": "[G28A G36A]", "self-cleavage": 0.397}
{"variant": "AACACUGCCAAUGCCGGUCCCAAGCCCAGAGAAAAGUGGAGGGGGCGG", "note": "[G28A U31G]", "self-cleavage": 0.916}
{"variant": "AACACUGCCAAUGCCGGUCCCAAGCCCAGAAAAAAGUGGAGGGGGCGG", "note": "[G28A U31A]", "self-cleavage": 0.904}
{"variant": "AACACUGCCAAUGCCGGUCCCAAGCCUGGAUAAAAGUGAAGGGGGCGG", "note": "[C27U G39A]", "self-cleavage": 0.253}
{"variant": "AACACUGCCAAUGCCGGUCCCAAGCCUGGAUAAAAGUGCAGGGGGCGG", "note": "[C27U G39C]", "self-cleavage": 0.136}
{"variant": "AACACUGCCAAUGCCGGUCCCAAGCCCCGAUAAAAGUGGAGGGGGCGU", "note": "[G28C G48U]", "self-cleavage": 0.543}
{"variant": "AACACUGCCAAUGCCGGUCCCAAGCCCCGAUAAAAGUGGAGGGGGCGC", "note": "[G28C G48C]", "self-cleavage": 0.83}
{"variant": "AACACUGCCAAUGCCGGUCCCAAGCCCAGAUAAAAGUGGAGGAGGCGG", "note": "[G28A G43A]", "self-cleavage": 0.191}
{"variant": "AACACUGCCAAUGCCGGUCCCAAGCCCAGAUAAAAGUGGAGGUGGCGG", "note": "[G28A G43U]", "self-cleavage": 0.326}
{"variant": "AACACUGCCAAUGCCGGUCCCAAGCCCAGAUAAAAGUGGAGGCGGCGG", "note": "[G28A G43C]", "self-cleavage": 0.163}
{"variant": "AACACUGCCAAUGCCGGUCCCAAGCCCAGAUAAAAGAGGAGGGGGCGG", "note": "[G28A U37A]", "self-cleavage": 0.465}
{"variant": "AACACUGCCAAUGCCGGUCCCAAGCCCAGAUAAAAGUGGAGGGGGUGG", "note": "[G28A C46U]", "self-cleavage": 0.918}
{"variant": "AACACUGCCAAUGCCGGUCCCAAGCCUGGAUAAAAGUGGAGGGGGCGC", "note": "[C27U G48C]", "self-cleavage": 0.844}
{"variant": "AACACUGCCAAUGCCGGUCCCAAGCCCCGAUAAAAGUGGAGAGGGCGG", "note": "[G28C G42A]", "self-cleavage": 0.185}
{"variant": "AACACUGCCAAUGCCGGUCCCAAGCCCCGAUAAAAGUGGAGCGGGCGG", "note": "[G28C G42C]", "self-cleavage": 0.296}
{"variant": "AACACUGCCAAUGCCGGUCCCAAGCCCCGAUAAAAGUGGAGUGGGCGG", "note": "[G28C G42U]", "self-cleavage": 0.169}
{"variant": "AACACUGCCAAUGCCGGUCCCAAGCCCGAUUAAAAGUGGAGGGGGCGG", "note": "[G29A A30U]", "self-cleavage": 0.709}
{"variant": "AACACUGCCAAUGCCGGUCCCAAGCCCGAGUAAAAGUGGAGGGGGCGG", "note": "[G29A A30G]", "self-cleavage": 0.892}
{"variant": "AACACUGCCAAUGCCGGUCCCAAGCCCGACUAAAAGUGGAGGGGGCGG", "note": "[G29A A30C]", "self-cleavage": 0.865}
{"variant": "AACACUGCCAAUGCCGGUCCCAAGCCCAGAUAAAAGUGGAGGGUGCGG", "note": "[G28A G44U]", "self-cleavage": 0.874}
{"variant": "AACACUGCCAAUGCCGGUCCCAAGCCCCGAUAAAAGUGGAGGGGGCGG", "note": "[G28C]", "self-cleavage": 0.894}
{"variant": "AACACUGCCAAUGCCGGUCCCAAGCCCUGAUAAAAGUGGAGGGGGCGG", "note": "[G28U]", "self-cleavage": 0.91}
{"variant": "AACACUGCCAAUGCCGGUCCCAAGCCCAGAUAAAAGUGGAGGGGGCGG", "note": "[G28A]", "self-cleavage": 0.897}
{"variant": "AACACUGCCAAUGCCGGUCCCAAGCCCAGAUAAAAGUGAAGGGGGCGG", "note": "[G28A G39A]", "self-cleavage": 0.326}
{"variant": "AACACUGCCAAUGCCGGUCCCAAGCCCAGAUAAAAGUGCAGGGGGCGG", "note": "[G28A G39C]", "self-cleavage": 0.154}
{"variant": "AACACUGCCAAUGCCGGUCCCAAGCCCCGAUAAAAGUGGAGGGGGCUG", "note": "[G28C G47U]", "self-cleavage": 0.378}
{"variant": "AACACUGCCAAUGCCGGUCCCAAGCCCCGAUAAAAGUGGAGGGGGCAG", "note": "[G28C G47A]", "self-cleavage": 0.28}
{"variant": "AACACUGCCAAUGCCGGUCCCAAGCCCGAAUAUAAGUGGAGGGGGCGG", "note": "[G29A A33U]", "self-cleavage": 0.759}
{"variant": "AACACUGCCAAUGCCGGUCCCAAGCCCGAAUACAAGUGGAGGGGGCGG", "note": "[G29A A33C]", "self-cleavage": 0.768}
{"variant": "AACACUGCCAAUGCCGGUCCCAAGCCCCGUUAAAAGUGGAGGGGGCGG", "note": "[G28C A30U]", "self-cleavage": 0.857}
{"variant": "AACACUGCCAAUGCCGGUCCCAAGCCCCGAUAAAAGUGGAGGGGACGG", "note": "[G28C G45A]", "self-cleavage": 0.552}
{"variant": "AACACUGCCAAUGCCGGUCCCAAGCCCUGAUAAAAGUGGAGGGGCCGG", "note": "[G28U G45C]", "self-cleavage": 0.175}
{"variant": "AACACUGCCAAUGCCGGUCCCAAGCCCUGAUAAAAGUGGAGGGGACGG", "note": "[G28U G45A]", "self-cleavage": 0.637}
{"variant": "AACACUGCCAAUGCCGGUCCCAAGCCUGGAUAAAAGUGGAGUGGGCGG", "note": "[C27U G42U]", "self-cleavage": 0.177}
{"variant": "AACACUGCCAAUGCCGGUCCCAAGCCUGGAUAAAAGUGGAGCGGGCGG", "note": "[C27U G42C]", "self-cleavage": 0.19}
{"variant": "AACACUGCCAAUGCCGGUCCCAAGCCUGGAUAAAAGUGGAGAGGGCGG", "note": "[C27U G42A]", "self-cleavage": 0.184}
{"variant": "AACACUGCCAAUGCCGGUCCCAAGCCCAGAUAAAAGUGGGGGGGGCGG", "note": "[G28A A40G]", "self-cleavage": 0.188}
{"variant": "AACACUGCCAAUGCCGGUCCCAAGCCCAGAUAAAAGUGGUGGGGGCGG", "note": "[G28A A40U]", "self-cleavage": 0.125}
{"variant": "AACACUGCCAAUGCCGGUCCCAAGCCCAGAUAAAAGUGGCGGGGGCGG", "note": "[G28A A40C]", "self-cleavage": 0.163}
{"variant": "AACACUGCCAAUGCCGGUCCCAAGCCCUGAUAAAAGUGGAGGGGGUGG", "note": "[G28U C46U]", "self-cleavage": 0.922}
{"variant": "AACACUGCCAAUGCCGGUCCCAAGCCCCGAUAAAAGUUGAGGGGGCGG", "note": "[G28C G38U]", "self-cleavage": 0.64}
{"variant": "AACACUGCCAAUGCCGGUCCCAAGCCCCGAUAAAAGUCGAGGGGGCGG", "note": "[G28C G38C]", "self-cleavage": 0.531}
